From the RNAGym collection of RNA variant scans (doi:10.1073/pnas.2313332121)
Fewer inactive variants are shown than the library holds.

B1: TPR 5TU (parent)
chain: GGAUCUUCUCGAUCUAACAAAAAAGACAAAUCUGCCACAAAGCUUGAGAGCAUCUUCGGAUGCAGAGGCGGCAGCCUUCGGUGGCGCGAUAGCGCCAACGUUCUCAACUAUGACACGCAAAACGCGUGCUCCGUUGAAUGGAGUUUAUCAUG

Variants of: B1
Experiment: polymerase ribozyme fitness, log enrichment relative to wild type (log ratio); higher = more active; in vitro selection for triplet polymerase activity
Method in brief: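 Fitness compares each genotype's enrichment to that of the wild type on a logarithmic scale, averaging replicates with inverse-variance weights. The logarithm is base 2. Enrichment came from Illumina sequencing of input and output libraries after one triplicate round of in vitro selection, which included frozen incubation at −7 °C, of PCR-built, transcribed mutant libraries of each subunit of a heterodimeric triplet polymerase ribozyme. Only genotypes with ≥10 input reads and ≥1 read per output were kept.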

Point of comparison: C32A C38U U55A G94A G126C, “polymerase ribozyme fitness (log ratio)” value -3.92. Against it:
- C96A A122C U139G A150C — higher, -3.67
- C5A C85U A97U G143A — higher, -1.87
- U104G A142G G152U — within 0.2 log units, -3.73
- C57G A73C C87G A97G U101G U130C — lower, ≤ -4.2
- G58U G126U A150C — within 0.2 log units, -4.03
- G86A G141A — higher, -0.545
- A16G A91U C105G A115G — lower, ≤ -4.2
- U13A A23U G59A C87U — lower, ≤ -4.2
- U55A A89G — higher, -1.16
- U53A G94C — higher, -1.3
- U44A G46C C87U — lower, ≤ -4.2
- A12U A91U A120G U146A — lower, -4.18
- G81U U82C C95U A120U — higher, -0.64
- A3C U6G G25U G83A — higher, -3.47
- A12U C18G C32A G84A C105U U127G — lower, ≤ -4.2
- C38U C105G G141U — higher, -1.54
- C38U C96A G141A — higher, -0.0442
- A26C A52C — higher, -3.22
- A26U G50C — lower, ≤ -4.2
- G94C A137C C149U — within 0.2 log units, -3.76
- A49C C116A G143C — lower, ≤ -4.2
- U4C U6G G74C G80C G92U C103G A106U — lower, ≤ -4.2
- U7C U53G G86C A106G A150C — lower, ≤ -4.2
- U6A U15G A16U G74A U82G C95U — lower, ≤ -4.2
- A19G C85G — higher, -2.84
- U6A A28C U44A U45A A49U C85G U144A — lower, ≤ -4.2
- U56A G58A C103A C125A — higher, -0.231
- A39U G126C — higher, -0.865
- A17U A47G C57U G74C U77C U82A G83A U102G A150G — lower, ≤ -4.2
- U45G U53A C85U — higher, -1.63
- A40G U90A — lower, ≤ -4.2
- A49G U53A — higher, -1.54
- G92A G126U — higher, -2.26
- U9G A24U C96U U144G — lower, ≤ -4.2
- C54G A147C — higher, -1.47
- A3U C5G A21U C85U A122G G140U U144G — lower, ≤ -4.2
- C5U A12C A40C U61A C95U — higher, -2.18
- A24G C51G G59C G92C C99U C125U — lower, ≤ -4.2
- C14A C69G C75A G92U G140U — lower, ≤ -4.2
- C14U A24U U55A G70C G94A C116G — lower, ≤ -4.2
- A19G A23U A30C G48U U56C A60U C87U — lower, ≤ -4.2
- A39C A142U — higher, -3.34
- C35U — higher, -0.0953
- U6G A26U G84C — higher, -2.97
- C51A C63A G88U G126A — lower, ≤ -4.2
- C27G C36G C85U — lower, ≤ -4.2
- C14U G88A — lower, -4.2
- G50U C95A U109G — higher, -3.26
- U15G A41U A73G — higher, -1.57
- U45G C87U U111G A147C — lower, ≤ -4.2
- C76A A91C G128C G143A — lower, ≤ -4.2
- U55A U56A G71A U82G U102G — lower, ≤ -4.2
- U4A C54A C95A A138C — lower, ≤ -4.2
- C14G U15A G68C G83A U111C — lower, ≤ -4.2
- A30U C35U G84A — lower, -4.19
- C27U A64G C75G G86A C105U — lower, -4.19
- C32G C87A A107G — lower, ≤ -4.2
- A22G C54U — higher, 0.651
- A3G U4A A17C A52G G94C U102C C131U — higher, -1.71
- U6A A19C U56A G83A G124C — higher, -1.45
- C8A G50U G74C G80A C85U U139C G141C — lower, ≤ -4.2
- A29G C69U — lower, ≤ -4.2
- G58C A119C — higher, -0.0646
- A28C U56A C72U C76G — lower, ≤ -4.2
- A21C U56G C85A C87U G92A — higher, -3.51
- U101G G133U — higher, -2.8
- A29U G50C A52C A64C U77C G92C G94A C95A A115C U139G — lower, ≤ -4.2
- A47C C87U C105A A119C — higher, -1.51
- C72U C85U C95U — higher, -0.261
- A49C G58A G65A U139A — lower, ≤ -4.2
- C75G A106C C108A — lower, ≤ -4.2
- U7C C10U A40C C85A A89C G100A C116A — lower, ≤ -4.2
- C27G G58C G86A C105A U144A — lower, ≤ -4.2
- A17U C51U U55A U78A G81C C123G — lower, ≤ -4.2
- G83A G124C — higher, -2.64
- U55A G59A C75U G92U C99G C129G U139G — lower, ≤ -4.2
- U31C G92C G126U — higher, 0.158
- U31G C85U — higher, 0.998
- C125A — higher, -0.171
- C38A — higher, -0.151
- C8G A22G U44A A52C A73C C125G — lower, ≤ -4.2
- G94U C116G — higher, -0.502
- G84A C118U — higher, -0.13
- U31G G94U A119U — higher, -0.547
- U53A C76A G84C A122U — lower, ≤ -4.2
- C10U A39G C54G C63A G70C C93U G141A — lower, ≤ -4.2
- G80U — higher, -0.409
- A3G A23C A24U C51U U55G G84A C85A G92U — lower, ≤ -4.2
- A21U C87U C96U C131G — lower, ≤ -4.2
- C35U G74U G83C A107C G126A U148C — lower, ≤ -4.2
- U45A A52G C63G A64U G70C A89C U101G C116A — lower, ≤ -4.2
- C5A C18U G86U — higher, -1.4
- G48C C118U — higher, -0.625
- A20C U31C A41C U55A C79A C99A C125G — lower, ≤ -4.2
- A49C U134G — lower, ≤ -4.2
- G86U G133A — lower, ≤ -4.2
- C54U A60C C99U — higher, -3.17
- C57U C79A A110C — lower, ≤ -4.2
- A20G C38G C69U G86U A91U C99G A137G — lower, ≤ -4.2
- A41G C87A A121G C123U G140A U146C C149G — lower, ≤ -4.2
- A3G C51A — higher, -1.26
- A28G A29U A89C G141C — lower, ≤ -4.2
- A3C U56A C69A C93U G126A U139G — higher, -2.53
- G81U C85G A89C C93G — lower, ≤ -4.2
- C85U A98U U139A — lower, ≤ -4.2
- U15G C36G U111G G124A G141C A150U — lower, ≤ -4.2
- C51G U55A — higher, -2.88
- G83C C105G — higher, -2.69
- U4C C87G A107G — lower, ≤ -4.2
- A20C C75A C96U C118G G141A — lower, ≤ -4.2
- G46U C69U C96A A110U A121C — lower, ≤ -4.2
- A16C C36G G92A C108A A113G U139A — lower, ≤ -4.2
- A20C C54U U78A — lower, ≤ -4.2
- A60G A110G G136A — higher, -2.56
- U56G A142U — higher, -0.88
- C8U A49U A52G — within 0.2 log units, -3.79
- A40G A64U U134G A142C — lower, ≤ -4.2
- U56C U78G C85U A89G — lower, ≤ -4.2
- A29U G84A — lower, ≤ -4.2
- A17G A21G U90C A147C A150U — lower, ≤ -4.2
- C85U G143C — higher, -1.66
- G94A A115U — higher, -1.76
- A47C G83A C118U G133C U148C — lower, ≤ -4.2
- A3C C51G U55G C75U C118A — lower, ≤ -4.2
- U31C C93U C131U — higher, 1.12
- A47C G68A C96G C99A — lower, ≤ -4.2
- G92C A98U G143A — higher, -1.77
- U4A A16G A37U A91G G124U — lower, ≤ -4.2
- G25U A29U G62U C85G A142C — lower, ≤ -4.2
- G59U A60U — higher, -0.703
- A3C C5A A52C G65U C99G G133C — lower, ≤ -4.2
- A3C U61A G84A G92A A120C — lower, ≤ -4.2
- C38U C95G — higher, -1.3
- U53A C57G G74C C87A C93A C149A — lower, ≤ -4.2
- A52C U55A C72U A98U — higher, -3.14
- A16G C27A G58C C85A C96G C116U G143C U148A — lower, ≤ -4.2
- U55G G67C U78G G83U C93A U102A A121C — lower, ≤ -4.2
- C54U A122U — higher, 0.0261
- A20U A40C G80U G83A C99U G133U A142G U145C — lower, ≤ -4.2
- A22U A49U G81U G86C G141C — lower, -4.13
- A60C A91U C93G A122C — lower, ≤ -4.2
- C14A A40G C43G G86U U135C G143C U148G — lower, ≤ -4.2
- G86A A89G C103G A115G G126C — lower, ≤ -4.2
- G25U — higher, -1.73
- A115U G136A — higher, -1.18
- C63U A73G — higher, -0.225
- G42U A52C C93U — lower, ≤ -4.2
- A49U G84U A97C G126C A138G A150G — lower, ≤ -4.2
- A47G G80A — higher, -0.0419
- C51U C93U U109G C116U — higher, -3.68
- C5A U6G U82C C95G — higher, -2.28
- A29C U44A G59U C72U C131G — lower, ≤ -4.2
- C10A A47G A64G G81U G84U — lower, ≤ -4.2
- G124U — higher, -0.432
- C32U U77G C103G A138U — lower, ≤ -4.2
- A41U A66C G67A C79G C96U A150U — lower, ≤ -4.2
- A23U A52G C76U C79A C103A — lower, ≤ -4.2
- A12G C35U U55G C87G A115U — lower, -4.17
- C51G U53A G83C C118U G128A — lower, ≤ -4.2
- U56A U130A — higher, -2.03
- C51U G92A — higher, -3.5
- U45A A47C C54A C57A U90C G140C — lower, ≤ -4.2
- G94U U151A — lower, ≤ -4.2
- A37C C108G — lower, ≤ -4.2
- U61A C63U C85G A119U C131A — lower, ≤ -4.2
- A12G C32U C85A A137C — lower, ≤ -4.2
